Assay [1] concerns the target Schizosaccharomyces japonicus Yop1, full length, with a C-terminal SBP tag (Schizosaccharomyces japonicus) (UniProt B6K529). As to the kind of experiment: SEC-MALS; in the detergent DDM; 20 mM Tris/HCl pH 7.5, 100 mM NaCl, 0.03% DDM; protein 0.2-1 mg/ml; protein conjugate model. (In general: SEC sorts molecules by how far they enter the pores of the column.)
For assay [2], the target named is Yop1F65Bpa (S. japonicus Yop1 with the photoreactive probe Bpa at F65 in TM2) (Schizosaccharomyces japonicus) (UniProt B6K529). Put plainly: cross-linking + SEC; Yop1F65Bpa irradiated in liposomes, then membranes solubilized in DDM and run on SEC.
For assay [3] the target is unchanged. Put plainly: cross-linking; photo-cross-linking through Bpa; purified protein reconstituted into liposomes of S. cerevisiae lipid extract at a protein:lipid molar ratio of 1:200; UV for 30 min on an ice-cold block; SDS-PAGE and Coomassie-blue staining.

In turn, “Schizosaccharomyces japonicus Yop1, full length, with a C-terminal SBP tag (from UniProt B6K529 1-191) (natural protein)” registered a stoichiometry N in assay [1] of 2. Regarding “Yop1F65Bpa (S. japonicus Yop1 with the photoreactive probe Bpa at F65 in TM2) (from UniProt B6K529 1-191) (natural protein)”, the stoichiometry N in assay [2] stood at 2. Moreover, the percent of monomers cross-linked into dimers in assay [3] is greater than 75%.

As usually defined, the stoichiometry N is a count of units in the complex or per binding partner.

Source of the values: publication PMC7835363.
